B1: Ang2VEGF-0454 (bispecific antibody, human IgG1, kappa)
light 1: QPGLTQPPSVSVAPGQTARITCGGNNIGSKSVHWYQQKPGQAPVLVVYDDSDRPSGIPERFSGSNSGNTATLTISRVEAGDEADYYCQVWDSSSDHYVFGTGTKVTVLRTVAAPSVFIFPPSDEQLKSGTASVVCLLNNFYPREAKVQWKVDNALQSGNSQESVTEQDSKDSTYSLSSTLTLSKADYEKHKVYACEVTHQGLSSPVTKSFNRGEC
heavy 1: not shown
light 2: DIQMTQSPSSLSASVGDRVTITCSASQDISNYLNWYQQKPGKAPKVLIYFTSSLHSGVPSRFSGSGSGTDFTLTISSLQPEDFATYYCQQYSTVPWTFGQGTKVEIKSSASTKGPSVFPLAPSSKSTSGGTAALGCLVKDYFPEPVTVSWNSGALTSGVHTFPAVLQSSGLYSLSSVVTVPSSSLGTQTYICNVNHKPSNTKVDKKVEPKSC
heavy 2: not shown
notes: also called Ang2VEGF-0454-0002; Ang2VEGF-0454-0002 (control)
B2: Ang2VEGF-0455 (bispecific antibody, human IgG1, kappa)
light 1: QPGLTQPPSVSVAPGQTARITCGGNNIGSKSVHWYQQKPGQAPVLVVYDDSDRPSGIPERFSGSNSGNTATLTISRVEAGDEADYYCQVWDSSSDHYVFGTGTKVTVLRTVAAPSVFIFPPSDEKLKSGTASVVCLLNNFYPREAKVQWKVDNALQSGNSQESVTEQDSKDSTYSLSSTLTLSKADYEKHKVYACEVTHQGLSSPVTKSFNRGEC
heavy 1: not shown
light 2: DIQMTQSPSSLSASVGDRVTITCSASQDISNYLNWYQQKPGKAPKVLIYFTSSLHSGVPSRFSGSGSGTDFTLTISSLQPEDFATYYCQQYSTVPWTFGQGTKVEIKSSASTKGPSVFPLAPSSKSTSGGTAALGCLVKDYFPEPVTVSWNSGALTSGVHTFPAVLQSSGLYSLSSVVTVPSSSLGTQTYICNVNHKPSNTKVDKKVEPKSC
heavy 2: not shown
notes: CrossMAb CH1-CL, knob-into-hole with S354C/Y349C; also called Ang2VEGF-0455-0002
B3: Ang2VEGF-0456 (bispecific antibody, human IgG1, kappa)
light 1: QPGLTQPPSVSVAPGQTARITCGGNNIGSKSVHWYQQKPGQAPVLVVYDDSDRPSGIPERFSGSNSGNTATLTISRVEAGDEADYYCQVWDSSSDHYVFGTGTKVTVLRTVAAPSVFIFPPSDEKLKSGTASVVCLLNNFYPREAKVQWKVDNALQSGNSQESVTEQDSKDSTYSLSSTLTLSKADYEKHKVYACEVTHQGLSSPVTKSFNRGEC
heavy 1: not shown
light 2: DIQMTQSPSSLSASVGDRVTITCSASQDISNYLNWYQQKPGKAPKVLIYFTSSLHSGVPSRFSGSGSGTDFTLTISSLQPEDFATYYCQQYSTVPWTFGQGTKVEIKSSASTKGPSVFPLAPSSKSTSGGTAALGCLVKDYFPEPVTVSWNSGALTSGVHTFPAVLQSSGLYSLSSVVTVPSSSLGTQTYICNVNHKPSNTKVDKKVEPKSC
heavy 2: not shown
notes: CrossMAb CH1-CL, knob-into-hole with S354C/Y349C; also called Ang2VEGF-0456-0002
B4: Ang2VEGF-0459 (bispecific antibody, human IgG1, kappa)
light 1: QPGLTQPPSVSVAPGQTARITCGGNNIGSKSVHWYQQKPGQAPVLVVYDDSDRPSGIPERFSGSNSGNTATLTISRVEAGDEADYYCQVWDSSSDHYVFGTGTKVTVLRTVAAPSVFIFPPSDEQLKSGTASVVCLLNNFYPREAKVQWKVDNALQSGNSQESVTEQDSKDSTYSLSSTLTLSKADYEKHKVYACEVTHQGLSSPVTKSFNRGEC
heavy 1: not shown
light 2: DIQMTQSPSSLSASVGDRVTITCSASQDISNYLNWYQQKPGKAPKVLIYFTSSLHSGVPSRFSGSGSGTDFTLTISSLQPEDFATYYCQQYSTVPWTFGQGTKVEIKSSASTKGPSVFPLAPSSKSTSGGTAALGCLVEDYFPEPVTVSWNSGALTSGVHTFPAVLQSSGLYSLSSVVTVPSSSLGTQTYICNVNHKPSNTKVDKKVEPKSC
heavy 2: not shown
notes: CrossMAb CH1-CL, knob-into-hole with S354C/Y349C; also called Ang2VEGF-0459-0002
B5: Ang2VEGF-0460 (bispecific antibody, human IgG1, kappa)
light 1: QPGLTQPPSVSVAPGQTARITCGGNNIGSKSVHWYQQKPGQAPVLVVYDDSDRPSGIPERFSGSNSGNTATLTISRVEAGDEADYYCQVWDSSSDHYVFGTGTKVTVLRTVAAPSVFIFPPSDEQLKSGTASVVCLLNNFYPREAKVQWKVDNALQSGNSQESVTEQDSKDSTYSLSSTLTLSKADYEKHKVYACEVTHQGLSSPVTKSFNRGEC
heavy 1: not shown
light 2: DIQMTQSPSSLSASVGDRVTITCSASQDISNYLNWYQQKPGKAPKVLIYFTSSLHSGVPSRFSGSGSGTDFTLTISSLQPEDFATYYCQQYSTVPWTFGQGTKVEIKSSASTKGPSVFPLAPSSKSTSGGTAALGCLVKDYFPEPVTVSWNSGALTSGVHTFPAVLQSSGLYSLSSVVTVPSSSLGTQTYICNVNHKPSNTKVDEKVEPKSC
heavy 2: not shown
notes: CrossMAb CH1-CL, knob-into-hole with S354C/Y349C; also called Ang2VEGF-0460-0002
B6: Ang2VEGF-0461 (bispecific antibody, human IgG1, kappa)
light 1: QPGLTQPPSVSVAPGQTARITCGGNNIGSKSVHWYQQKPGQAPVLVVYDDSDRPSGIPERFSGSNSGNTATLTISRVEAGDEADYYCQVWDSSSDHYVFGTGTKVTVLRTVAAPSVFIFPPSDKRLKSGTASVVCLLNNFYPREAKVQWKVDNALQSGNSQESVTEQDSKDSTYSLSSTLTLSKADYEKHKVYACEVTHQGLSSPVTKSFNRGEC
heavy 1: not shown
light 2: DIQMTQSPSSLSASVGDRVTITCSASQDISNYLNWYQQKPGKAPKVLIYFTSSLHSGVPSRFSGSGSGTDFTLTISSLQPEDFATYYCQQYSTVPWTFGQGTKVEIKSSASTKGPSVFPLAPSSKSTSGGTAALGCLVKDYFPEPVTVSWNSGALTSGVHTFPAVLQSSGLYSLSSVVTVPSSSLGTQTYICNVNHKPSNTKVDKKVEPKSC
heavy 2: not shown
notes: CrossMAb CH1-CL, knob-into-hole with S354C/Y349C; also called Ang2VEGF-0461-0002
B7: Ang2VEGF-0462 (bispecific antibody, human IgG1, kappa)
light 1: QPGLTQPPSVSVAPGQTARITCGGNNIGSKSVHWYQQKPGQAPVLVVYDDSDRPSGIPERFSGSNSGNTATLTISRVEAGDEADYYCQVWDSSSDHYVFGTGTKVTVLRTVAAPSVFIFPPSDKRLKSGTASVVCLLNNFYPREAKVQWKVDNALQSGNSQESVTEQDSKDSTYSLSSTLTLSKADYEKHKVYACEVTHQGLSSPVTKSFNRGEC
heavy 1: not shown
light 2: DIQMTQSPSSLSASVGDRVTITCSASQDISNYLNWYQQKPGKAPKVLIYFTSSLHSGVPSRFSGSGSGTDFTLTISSLQPEDFATYYCQQYSTVPWTFGQGTKVEIKSSASTKGPSVFPLAPSSKSTSGGTAALGCLVKDYFPEPVTVSWNSGALTSGVHTFPAVLQSSGLYSLSSVVTVPSSSLGTQTYICNVNHKPSNTKVDKKVEPKSC
heavy 2: not shown
notes: CrossMAb CH1-CL, knob-into-hole with S354C/Y349C; also called Ang2VEGF-0462-0002
B8: Ang2VEGF-0463 (bispecific antibody, human IgG1, kappa)
light 1: QPGLTQPPSVSVAPGQTARITCGGNNIGSKSVHWYQQKPGQAPVLVVYDDSDRPSGIPERFSGSNSGNTATLTISRVEAGDEADYYCQVWDSSSDHYVFGTGTKVTVLRTVAAPSVFIFPPSDKRLKSGTASVVCLLNNFYPREAKVQWKVDNALQSGNSQESVTEQDSKDSTYSLSSTLTLSKADYEKHKVYACEVTHQGLSSPVTKSFNRGEC
heavy 1: not shown
light 2: DIQMTQSPSSLSASVGDRVTITCSASQDISNYLNWYQQKPGKAPKVLIYFTSSLHSGVPSRFSGSGSGTDFTLTISSLQPEDFATYYCQQYSTVPWTFGQGTKVEIKSSASTKGPSVFPLAPSSKSTSGGTAALGCLVKDYFPEPVTVSWNSGALTSGVHTFPAVLQSSGLYSLSSVVTVPSSSLGTQTYICNVNHKPSNTKVDKKVEPKSC
heavy 2: not shown
notes: CrossMAb CH1-CL, knob-into-hole with S354C/Y349C; also called Ang2VEGF-0463-0002

Tests used:
human Ang-2-RBD-Fc [1] = molecular target: T1, human Ang-2-RBD-Fc (human, UniProt O15123 275-496, limits assumed); assay: SPR (Biacore T200), bispecific antibody captured by anti-human F(ab')2, Ang2-RBD-Fc as analyte, 1:1 Langmuir, apparent KD
T1 construct: domain: RBD; Analyte in solution; not shown: Fc part
T1 sequence (looked up): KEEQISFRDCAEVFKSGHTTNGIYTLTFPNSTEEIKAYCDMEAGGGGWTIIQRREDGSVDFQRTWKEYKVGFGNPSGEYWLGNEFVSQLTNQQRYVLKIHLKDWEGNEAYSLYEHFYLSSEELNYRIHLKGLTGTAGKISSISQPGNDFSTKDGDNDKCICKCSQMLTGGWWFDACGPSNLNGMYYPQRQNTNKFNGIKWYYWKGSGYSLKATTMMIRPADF
Description: (§1) Binding of indicated antibodies to human Ang-2-RBD-Fc was investigated by surface plasmon resonance using a BIACORE® T200 instrument (GE Healthcare). Around 8000 (RU) of goat anti human F(ab′)₂ (10 μg/ml anti human F(ab)′₂; Order Code: 28958325; GE Healthcare Bio-Sciences AB, Sweden) were coupled on a Series S CMS chip (GE Healthcare BR-1005-30) at pH 5.0 by using an amine coupling kit supplied by the GE Healthcare. HBS-N (10 mM HEPES, 150 mM NaCl pH 7.4, GE Healthcare) was used as running buffer during the immobilization procedure. For the following kinetic characterization, sample and running buffer was PBS-T (10 mM phosphate buffered saline including 0.05% Tween20) at pH 7.4. The flow cell was set to 25° C.—and the sample block set to 12° C.—and primed with running buffer twice prior to kinetic characterization.
(§2) The bispecific antibody was captured by injecting a 5 nM solution for 25 sec at a flow of 5 μl/min. The association was measured by injection of human Ang2-RBD-Fc in various concentrations in solution for 120 sec at a flow of 30 μl/min starting with 100 nM in 1:3 serial dilutions. The dissociation phase was monitored for up to 180 sec and triggered by switching from the sample solution to running buffer. The surface was regenerated by 60 sec washing with a Glycine pH 2.1 solution at a flow rate of 30 μl/min. Bulk refractive index differences were corrected by subtracting the response obtained from a goat anti human F(ab′)₂ surface. Blank injections are also subtracted (=double referencing). For calculation of apparent KD the Langmuir 1:1 model was used.

human Ang-2-RBD-Fc [2] = molecular target: T1, human Ang-2-RBD-Fc; assay: SPR (Biacore T200), bispecific antibody captured by anti-human F(ab')2, Ang2-RBD-Fc as analyte, 1:1 Langmuir
Description: as §1, §2
(§3) Binding of the multispecific antibodies to their respective target antigens, i.e. ANG2 and VEGF, was assessed by Biacore® as described in the general methods section.

[3] = molecular target: T2, human VEGFA-121 (VEGF-A-121-His) (human, UniProt P15692-9 27-147); assay: SPR (Biacore T200), VEGF-A-121-His captured by anti-His antibody, bispecific antibody as analyte, 1:1 Langmuir
T2 construct: Captured on the chip through an anti-His antibody; not shown: His tag
T2 sequence (looked up): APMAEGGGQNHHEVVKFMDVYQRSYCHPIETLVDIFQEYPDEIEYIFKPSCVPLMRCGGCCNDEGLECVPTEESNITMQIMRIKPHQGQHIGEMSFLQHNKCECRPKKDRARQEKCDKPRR
Description: Around 10000 (RU) of anti His antibody (1 μg/ml anti His antibody; Order Code: 28995056; GE Healthcare Bio-Sciences AB, Sweden) were coupled on a Series S CM5 chip (GE Healthcare BR-1005-30) at pH 5.0 by using an amine coupling kit supplied by the GE Healthcare. HBS-N (10 mM HEPES, 150 mM NaCl pH 7.4, GE Healthcare) was used as running buffer during the immobilization procedure. For the following kinetic characterization, sample and running buffer was PBS-T (10 mM phosphate buffered saline including 0.05% Tween20) at pH 7.4. The flow cell was set to 25° C.—and the sample block set to 12° C.—and primed with running buffer twice prior to kinetic characterization.
as §3

Binder | Kd (human Ang-2-RBD-Fc [1]) [nM] | koff (human Ang-2-RBD-Fc [2]) [s⁻¹] | kon (human Ang-2-RBD-Fc [2]) [M⁻¹ s⁻¹] | Kd [3] [nM] | koff [3] [s⁻¹] | kon [3] [M⁻¹ s⁻¹]
B1 | 2 | 0.0182 | 1.08e+07 | 4 | 8.65e-05 | 20400
B2 | 2 | 0.0227 | 1.06e+07 | 7 | 9.01e-05 | 12600
B3 | 2 | 0.0252 | 1.16e+07 | 4 | 8.4e-05 | 21000
B4 | 2 | 0.0199 | 8.8e+06 | 4 | 7.19e-05 | 17000
B5 | 2 | 0.0163 | 8.76e+06 | 6 | 8.18e-05 | 14200
B6 | 2 | 0.0163 | 1.07e+07 | 4 | 7.67e-05 | 19200
B7 | 2 | 0.0252 | 1.21e+07 | 4 | 7.52e-05 | 21200
B8 | 3 | 0.0281 | 9.54e+06 | 4 | 7.44e-05 | 17600
